The target in assay [1] is PF3D7_0919900 recombinant protein, KSVSF to KSASA (Plasmodium falciparum). As to the kind of experiment: ELISA; plates coated with 25 pmol/well of each recombinant Pip in PBS overnight at 4 °C; biotin-PfPP1 4 pmol/well in solution.
The target in assay [2] is PF3D7_0220000 recombinant protein with a stop in the second position of the KKVRF motif (Plasmodium falciparum). The assay is described as above.

The text below walks through data of PMC4794898.

On to “biotin labeled PfPP1 (from UniProt Q8ILV1 1-304) (enzyme)”, for which the decrease of the binding against the wild protein (100 %) in assay [1] amounted to 70%; in assay [2], 86%.
